Source: patent US20250277199, “NOVEL CRISPR-CAS NUCLEASES FROM METAGENOMES” (Brain Biotech AG, published 2025)

Biological target: T1, BMC04 (uncultured bacterium (metagenome))
T1 chain: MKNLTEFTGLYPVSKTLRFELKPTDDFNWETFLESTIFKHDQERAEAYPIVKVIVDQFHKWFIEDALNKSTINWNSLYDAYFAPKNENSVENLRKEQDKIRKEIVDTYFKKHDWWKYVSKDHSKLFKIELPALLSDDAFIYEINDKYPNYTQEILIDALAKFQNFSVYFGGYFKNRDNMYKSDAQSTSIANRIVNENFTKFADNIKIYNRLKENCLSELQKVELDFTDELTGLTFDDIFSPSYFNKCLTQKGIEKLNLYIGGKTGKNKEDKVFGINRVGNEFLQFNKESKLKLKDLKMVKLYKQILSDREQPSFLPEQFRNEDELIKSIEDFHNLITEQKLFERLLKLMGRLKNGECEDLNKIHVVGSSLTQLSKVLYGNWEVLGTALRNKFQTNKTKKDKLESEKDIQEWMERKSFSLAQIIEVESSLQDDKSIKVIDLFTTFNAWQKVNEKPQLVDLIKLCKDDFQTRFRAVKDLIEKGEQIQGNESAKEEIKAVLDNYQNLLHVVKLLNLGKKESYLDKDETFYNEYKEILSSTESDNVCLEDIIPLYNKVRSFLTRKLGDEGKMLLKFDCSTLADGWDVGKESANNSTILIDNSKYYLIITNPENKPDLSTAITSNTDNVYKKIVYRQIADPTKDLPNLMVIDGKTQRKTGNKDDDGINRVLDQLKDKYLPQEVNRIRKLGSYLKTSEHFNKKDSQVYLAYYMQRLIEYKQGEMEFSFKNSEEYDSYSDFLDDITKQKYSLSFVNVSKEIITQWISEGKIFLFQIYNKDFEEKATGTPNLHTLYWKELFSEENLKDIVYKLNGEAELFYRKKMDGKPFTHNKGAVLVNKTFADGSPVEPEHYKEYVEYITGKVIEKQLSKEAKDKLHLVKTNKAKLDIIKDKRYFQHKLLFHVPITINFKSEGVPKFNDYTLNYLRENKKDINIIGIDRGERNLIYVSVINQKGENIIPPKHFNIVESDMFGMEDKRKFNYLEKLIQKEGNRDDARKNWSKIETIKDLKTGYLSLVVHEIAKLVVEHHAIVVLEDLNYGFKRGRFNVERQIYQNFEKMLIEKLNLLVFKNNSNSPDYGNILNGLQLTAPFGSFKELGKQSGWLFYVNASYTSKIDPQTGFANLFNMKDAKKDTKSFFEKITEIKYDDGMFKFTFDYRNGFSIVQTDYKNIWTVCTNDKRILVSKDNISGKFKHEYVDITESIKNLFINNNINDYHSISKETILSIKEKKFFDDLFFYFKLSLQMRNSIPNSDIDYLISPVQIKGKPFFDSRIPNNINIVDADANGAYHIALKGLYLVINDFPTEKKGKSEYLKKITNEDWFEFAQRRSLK
Experiment: cell_activity; PAM not stated; E. coli depletion, 30 C
Procedure, shortened: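 E. coli carrying arabinose-induced (0.2%) BMC nuclease, grown at 30° C., made electrocompetent and electroporated with 50-100 ng plasmid carrying gRNA against malQ. Transformants plated on selective M9-glucose agar with kanamycin/ampicillin (± nourseothricin), and growth scored after 48 h at 30° C.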

B1: malQ gRNA (BMC stem-loop + 24 nt spacer) ; malQ protospacer (ssRNA ; dsDNA)
RNA: GAUUUCUACUAUUGUAGAUGUGGCGGUACGUUGAUGCAUCGCG
DNA 1: GTGGCGGTACGTTGATGCATCGCG
DNA 2: CGCGATGCATCAACGTACCGCCAC
activity: > 99.9 % colony reduction
